Test results published in PMC11156954, “Inhibition and transport mechanisms of the ABC transporter hMRP5” (Nature Communications, 2024).

What was measured:
hMRP5-Δ1-94-8xHis = target: T1, hMRP5-Δ1-94-8xHis (human, UniProt O15440 95-1437, RED-tris-NTA 2nd Generation dye on the His tag); test: MST; digitonin-purified hMRP5-Δ1-94-8xHis labelled with RED-tris-NTA 2nd Generation dye; serially diluted peptides; 15 min at room temperature; HEPES buffer; 3% LED/excitation power, medium MST power (Monolith NT); conditions: both partners purified
T1 construct: human multidrug resistance protein 5 (MRP5, ABCC5), UniProt O15440, without the flexible N-terminal region Met1-Thr94; Plasmids and primers are in Supplementary Data 1 and 2; source: HEK293F, transfected; digitonin-purified (HEPES buffer instead of Tris)

hMRP5-Δ1-94 = target: T2, hMRP5-Δ1-94 (human, UniProt O15440 95-1437); test: cryo-EM structure; peptide M5PI and hMRP5-Δ1-94 incubated on ice at a ratio of 2:1 for 1 h before vitrification; digitonin; conditions: both partners purified
T2 construct: human multidrug resistance protein 5 (MRP5, ABCC5), UniProt O15440, without the flexible N-terminal region Met1-Thr94; This is the construct used for cryo-EM; Plasmids and primers are in Supplementary Data 1 and 2; also called hMRP5-Δ1-94 truncation mutant; apo form; source: HEK293F, transfected, purified (strep-Tactin, SEC on Superose 6 Increase, digitonin)
T2 sequence (O15440 95-1437, stated change not applied): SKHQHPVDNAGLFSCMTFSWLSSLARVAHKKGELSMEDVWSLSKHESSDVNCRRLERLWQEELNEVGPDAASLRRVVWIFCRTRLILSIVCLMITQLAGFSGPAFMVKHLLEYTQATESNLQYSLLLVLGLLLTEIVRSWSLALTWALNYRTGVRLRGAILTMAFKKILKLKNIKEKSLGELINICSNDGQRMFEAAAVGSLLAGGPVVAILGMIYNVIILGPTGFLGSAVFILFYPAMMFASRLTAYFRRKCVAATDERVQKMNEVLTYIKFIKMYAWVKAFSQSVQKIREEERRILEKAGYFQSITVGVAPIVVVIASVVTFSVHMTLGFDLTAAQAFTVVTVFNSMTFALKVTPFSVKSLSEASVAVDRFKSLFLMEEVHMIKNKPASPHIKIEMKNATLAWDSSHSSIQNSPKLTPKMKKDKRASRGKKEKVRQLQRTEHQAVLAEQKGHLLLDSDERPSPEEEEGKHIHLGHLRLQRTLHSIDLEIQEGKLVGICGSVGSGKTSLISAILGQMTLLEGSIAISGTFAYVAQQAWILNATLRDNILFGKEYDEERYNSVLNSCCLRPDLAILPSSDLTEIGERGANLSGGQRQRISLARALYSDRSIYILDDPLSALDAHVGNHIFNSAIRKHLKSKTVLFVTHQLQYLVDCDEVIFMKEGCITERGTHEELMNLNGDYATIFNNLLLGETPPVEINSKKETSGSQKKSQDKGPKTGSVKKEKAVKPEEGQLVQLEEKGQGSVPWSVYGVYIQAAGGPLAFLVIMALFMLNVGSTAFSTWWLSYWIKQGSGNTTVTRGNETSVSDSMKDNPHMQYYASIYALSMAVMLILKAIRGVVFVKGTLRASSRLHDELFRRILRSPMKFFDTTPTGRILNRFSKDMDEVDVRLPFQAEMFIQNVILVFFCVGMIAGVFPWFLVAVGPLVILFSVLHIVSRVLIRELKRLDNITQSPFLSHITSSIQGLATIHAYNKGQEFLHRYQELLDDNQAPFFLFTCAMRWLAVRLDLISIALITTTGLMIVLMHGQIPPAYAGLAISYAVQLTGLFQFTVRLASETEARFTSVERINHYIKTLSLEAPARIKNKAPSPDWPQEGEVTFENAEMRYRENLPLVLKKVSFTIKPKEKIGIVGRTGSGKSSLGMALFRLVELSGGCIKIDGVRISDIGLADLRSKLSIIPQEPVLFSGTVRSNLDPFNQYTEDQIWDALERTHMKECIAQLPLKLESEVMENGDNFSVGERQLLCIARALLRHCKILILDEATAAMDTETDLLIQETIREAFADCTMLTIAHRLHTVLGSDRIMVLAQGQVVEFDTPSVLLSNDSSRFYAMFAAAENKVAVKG

T1 sequence (O15440 95-1437, stated change not applied): as above

- binding result (hMRP5-Δ1-94-8xHis): binds
- binding result (hMRP5-Δ1-94): binds
B1: MRP5 potential peptide inhibitor (M5PI) (peptide, UniProt O15440 35-75, looked up)
peptide: CSKFRRTRPLECQDALETAARAEGLSLDASMHSQLRILDEC
notes: stretch 35-75 of the N-terminal loop of human MRP5 (UniProt O15440) with both terminal residues replaced by cysteine; The cysteines were meant for cyclisation; also called D35C-E75C; Asp35Cys-Glu75Cys; source: synthetic peptide (GL Biochem, Shanghai)
